From patent US20090118127A1 (Janssen / Centocor, published 2009)

Legend:
[1] = molecular target: T1, human tumor necrosis factor alpha (TNFα) (human, UniProt P01375 77-233); experiment: ELISA, human TNFα coated on the plate, bound antibody detected with HRP anti-human kappa
T1 construct: also called human TNFα
Procedure: Antibodies were assessed for binding to human TNFα using an ELISA format. Briefly, human TNFα was coated into the wells of a 96 well plate and candidate mAbs were incubated at various concentrations (20 to 0.2 ng/ml) and bound antibody was detected with HRP-labeled anti-human kappa light chain IgG (Jackson, ImmunoResearch, West Grove, Pa.).

[2] = molecular target: T1, human tumor necrosis factor alpha (TNFα); experiment: Biacore (SPR), 3 pairs of experiments
[3] = molecular target: T1, human tumor necrosis factor alpha (TNFα); experiment: Biacore (SPR), calculated KD

T1 sequence (P01375 77-233 limits assumed): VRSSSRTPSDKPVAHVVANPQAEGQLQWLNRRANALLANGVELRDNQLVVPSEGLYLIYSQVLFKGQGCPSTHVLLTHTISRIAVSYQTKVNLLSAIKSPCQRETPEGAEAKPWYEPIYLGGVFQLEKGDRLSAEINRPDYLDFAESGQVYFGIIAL

B1: Structure Based Human Adapted C7 (antibody, V domains shown)
VH: EVQLVESGGGLVQPGGSLRLSCAASGFIFSNHWMNWVRQAPGKGLEWIGEIRSKSINSATHYAESVKGRFIISRDDNKNSLYLEMNSLKTEDTAEYYCARNYYGSTYDYWGQGTLVTVS
VL: EIVLTQSPDFQSVTPKEKVTITCRASQFVGSSIHWYQQKPDQSPKLLIKYASESMSGVPSRFSGSGSGTDFTFTISSLEAEDAATYYCQQSHSWPFTFGPGTKVDIK
EC50 (read off the curve) [1]: ~2 ng/mL
koff [2]: 5.63e-05 s⁻¹
kon [2]: 803000 M⁻¹ s⁻¹
Kd [3]: 70 pM
